The target in data set [1] is T1, NM23-H2 wild type (UniProt P22392 1-152). Briefly: EMSA.
Data set [2] has as its target NM23-H2 K12A (UniProt P22392 1-152, K12A). Description: EMSA with FRET detection. (In EMSA bound probe runs differently from free probe, usually more slowly.)
For data set [3], the target named is NM23-H2 H118C (UniProt P22392 1-152, H118C). Briefly: EMSA with FRET detection.
In data set [4] the target is T1, NM23-H2 wild type. Briefly: EMSA with FRET detection.

T1 sequence (P22392 whole entry): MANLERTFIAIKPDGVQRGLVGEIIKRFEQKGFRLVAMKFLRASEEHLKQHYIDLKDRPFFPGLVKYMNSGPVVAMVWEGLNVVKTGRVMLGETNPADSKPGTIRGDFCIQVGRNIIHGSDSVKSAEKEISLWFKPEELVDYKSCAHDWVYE
NM23-H2 K12A, sequence (P22392 whole entry K12A): as the sequence (P22392 whole entry) above, with K12A counted along it
NM23-H2 H118C, sequence (P22392 whole entry H118C): as the sequence (P22392 whole entry) above, with H118C counted along it

B1: c-MYC NHE G4 27-mer (structured_DNA)
DNA: TGGGGAGGGTGGGGAGGGTGGGGAAGG
With B1, in data set [1], the binding result is reported as “binds”.

B2: FG27T (structured_DNA)
DNA: TGGGGAGGGTGGGGAGGGTGGGGAAGG
With B2, the binding result in data set [2], in data set [3] and in data set [4] was “binds” each time.

Source of the values: publication PMC2615625.
